The results in this text go back to article PMC4934754, “HCF1 and OCT2 Cooperate with EBNA1 To Enhance OriP-Dependent Transcription and Episome Maintenance of Latent Epstein-Barr Virus”.

In series [1] the target is T1, His-OCT2 DBD (HTRF) (UniProt P09086-3 175-345).
T1 sequence: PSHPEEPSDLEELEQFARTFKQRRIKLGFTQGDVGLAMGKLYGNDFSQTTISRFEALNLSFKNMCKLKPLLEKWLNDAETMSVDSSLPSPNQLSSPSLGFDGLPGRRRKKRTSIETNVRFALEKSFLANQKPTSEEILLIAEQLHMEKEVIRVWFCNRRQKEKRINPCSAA
Kind of series: HTRF; 0-80 nM OCT2; Buffer not given (EMSA as in cited ref. 32; HTRF and ALPHA in similar conditions; 1 h incubation for HTRF). The note with it: protein: recombinant; label: 5' biotin, streptavidin Eu3+ cryptate. A general note: TR-FRET usually uses a lanthanide donor and a delayed reading to cut background.

Series [2] has as its target T2, EBNA1 DBD;OCT2 DBD (Epstein-Barr virus;human?, UniProt P03211;P09086-3 459-607;175-345, |). As to the kind of experiment: HTRF; 15 nM His-EBNA1, 2.5-40 nM unlabeled OCT2; OCT2 stimulates EBNA1 binding; Buffer not given (EMSA as in cited ref. 32; HTRF and ALPHA in similar conditions; 1 h incubation for HTRF). The note with it: protein: recombinant;recombinant; tags: His;none (His-SUMO removed by SUMO protease); copies: 1;1; label: 5' biotin, streptavidin Eu3+ cryptate.

The target of series [3] is T3, OCT2 DBD (UniProt P09086-3 175-345).
T3 sequence: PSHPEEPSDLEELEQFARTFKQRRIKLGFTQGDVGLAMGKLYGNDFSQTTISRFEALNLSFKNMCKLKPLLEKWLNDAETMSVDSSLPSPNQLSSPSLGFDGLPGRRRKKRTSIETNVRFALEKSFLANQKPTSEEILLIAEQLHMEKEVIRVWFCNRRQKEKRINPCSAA
As to the kind of experiment: EMSA; single major species at 40 nM OCT2, larger complex at higher concentration; Buffer not given (EMSA as in cited ref. 32; HTRF and ALPHA in similar conditions; 1 h incubation for HTRF). The note with it: protein: recombinant; tags: none (His-SUMO removed by SUMO protease); label: 32P. (Mobility shift assays separate free from complexed probe on a gel.)

The target of series [4] is EBNA1 DBD (Epstein-Barr virus, UniProt P03211 459-607). As to the kind of experiment: EMSA; no OCT2; low nanomolar affinity, two major species; Buffer not given (EMSA as in cited ref. 32; HTRF and ALPHA in similar conditions; 1 h incubation for HTRF). The following applies: protein: recombinant; tags: His; label: 32P.
Sequence of EBNA1 DBD (P03211 459-607): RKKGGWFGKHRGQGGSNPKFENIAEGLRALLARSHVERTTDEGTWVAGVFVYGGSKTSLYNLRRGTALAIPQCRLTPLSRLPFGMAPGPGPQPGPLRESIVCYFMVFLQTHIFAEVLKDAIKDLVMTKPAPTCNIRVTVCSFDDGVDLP
The target in series [5] is T2, EBNA1 DBD;OCT2 DBD. As to the kind of experiment: EMSA; EBNA1 titration with 40 nM OCT2 or OCT2 titration with 15 nM EBNA1; saturated complex distinct from EBNA1 alone; Buffer not given (EMSA as in cited ref. 32; HTRF and ALPHA in similar conditions; 1 h incubation for HTRF). The following applies: protein: recombinant;recombinant; tags: His;none (His-SUMO removed by SUMO protease); copies: 1;1; label: 32P.

T2 sequence (P03211 459-607, one chain of several): as the sequence (P03211 459-607) above

B1: 2xFR (60 bp), biotin (dsDNA)
DNA 1: ATTAGGATAGCCTATGCTACCCAGATATAGATTAGGATAGCATATGCTACCCAGATATAG
DNA 2: CTATATCTGGGTAGCATATGCTATCCTAATCTATATCTGGGTAGCATAGGCTATCCTAAT
B1: the binding result in series [1] and in series [2] was “binds” throughout.

B2: 2xFR (60-mer), 32P (dsDNA)
DNA 1: ATTAGGATAGCCTATGCTACCCAGATATAGATTAGGATAGCATATGCTACCCAGATATAG
DNA 2: CTATATCTGGGTAGCATATGCTATCCTAATCTATATCTGGGTAGCATAGGCTATCCTAAT
As for B2, the binding result in series [3], in series [4] and in series [5] was “binds” in each case.
